Patent publication US20230365642A1 (published 2023)
Residue numbers refer to the chain shown, from its start.

Columns and labels:
MDNA109 (1st Gen.) = experiment: BLI
MDNA19 (3rd Gen.) = experiment: BLI
MDNA109-Alb (2nd Gen.) = experiment: BLI
[1] = target: T1, IL13Rα2 Protein, Human, Recombinant, His Tag (human, UniProt Q14627 27-343); experiment: SPR; kinetic
T1 chain: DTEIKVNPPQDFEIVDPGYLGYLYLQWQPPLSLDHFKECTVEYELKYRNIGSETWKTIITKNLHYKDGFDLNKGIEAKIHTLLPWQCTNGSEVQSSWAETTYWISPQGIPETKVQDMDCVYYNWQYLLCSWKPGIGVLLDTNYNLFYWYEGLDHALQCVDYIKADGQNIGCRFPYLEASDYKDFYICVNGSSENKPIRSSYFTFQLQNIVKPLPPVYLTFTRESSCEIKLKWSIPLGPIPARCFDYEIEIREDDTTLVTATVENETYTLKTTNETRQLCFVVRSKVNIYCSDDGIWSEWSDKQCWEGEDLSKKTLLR

[2] = target: T2, IL13Rα Protein, Human, Recombinant, His Tag (human IL13Rα1) (human, UniProt P78552 22-343); experiment: SPR; equilibrium
T2 chain: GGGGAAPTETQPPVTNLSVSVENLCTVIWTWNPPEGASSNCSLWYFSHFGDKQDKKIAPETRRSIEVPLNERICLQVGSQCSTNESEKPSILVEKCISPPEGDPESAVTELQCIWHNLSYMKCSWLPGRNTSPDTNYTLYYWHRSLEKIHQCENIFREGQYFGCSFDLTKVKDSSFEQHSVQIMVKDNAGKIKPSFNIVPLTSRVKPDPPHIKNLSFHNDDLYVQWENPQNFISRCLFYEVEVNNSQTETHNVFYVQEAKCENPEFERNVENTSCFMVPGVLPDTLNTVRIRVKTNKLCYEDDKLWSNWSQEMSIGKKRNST

[3] = target: T2, IL13Rα Protein, Human, Recombinant, His …; experiment: SPR; kinetic
[4] = target: T1, IL13Rα2 Protein, Human, Recombinant, …; experiment: SPR; equilibrium
IL2R alpha (CD25) = target: T3, IL2R alpha (CD25) (UniProt P01589 22-213); experiment: BLI
T3 chain: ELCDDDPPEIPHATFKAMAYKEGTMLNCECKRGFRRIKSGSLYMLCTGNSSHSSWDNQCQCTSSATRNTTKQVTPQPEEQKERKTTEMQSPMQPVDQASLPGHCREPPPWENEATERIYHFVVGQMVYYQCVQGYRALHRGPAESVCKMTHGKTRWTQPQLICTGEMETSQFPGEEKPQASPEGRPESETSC

IL2R beta (CD122) = target: T4, IL2R beta (CD122) (UniProt P14784 27-239); experiment: BLI
T4 chain: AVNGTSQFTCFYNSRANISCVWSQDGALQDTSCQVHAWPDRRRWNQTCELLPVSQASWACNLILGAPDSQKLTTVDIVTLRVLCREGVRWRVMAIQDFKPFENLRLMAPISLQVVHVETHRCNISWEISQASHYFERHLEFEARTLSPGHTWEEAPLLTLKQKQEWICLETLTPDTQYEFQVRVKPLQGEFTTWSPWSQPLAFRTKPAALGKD

B1: CD122 (IL-2Rβ) (receptor)
chain: T4 chain
Work on B1 yielded a Kd (MDNA109 (1st Gen.)) of 1.8 nM, a Kd (MDNA19 (3rd Gen.)) of 2.1 nM and a Kd (MDNA109-Alb (2nd Gen.)) of 3.5 nM.

B2: C12 (protein)
chain: PGPVPPSTAHRELIEELVNITQNQKAPLCNGSMVWSINLTAGMYCAALESLINVSGCSAIEKTQRMLSGFCPHKVSAGQFSSLHVMDSRIEVAQFVKDLLNHLRALFKEGQFN
Binder B2 has a Kd [1] of 0.053 nM and a Kd [2] of 15000 nM.

B3: A7 (protein)
chain: B2 chain with H10I, V18I, M86R, D87G, R89K, N101H, K108R
With B3 the Kd [1] was 0.218 nM and the Kd [3] was 1.18 nM.

B4: C3 (protein)
chain: B2 chain with H10A, M86T, D87G, S88K
With B4 the Kd [1] was 0.379 nM and the Kd [2] was 16000 nM.

B5: A6 (protein)
chain: B2 chain with H10I, V18L, D87K, R89K, N101H, K108R
B5 was tested, and the Kd [1] was 0.267 nM and the Kd [3] was 1.9 nM.

B6: C9 (protein)
chain: B2 chain with R11L, V18I, M86K, D87E, S88T, R104K, A105T
B6 showed a Kd [1] of 0.259 nM and a Kd [2] of 31000 nM.

B7: B2 (protein)
chain: B2 chain with H10L, V18I, M86T, D87G, R89K, N101Y, K108R
Binder B7 has a Kd [1] of 1.5 nM and a Kd [3] of 0.275 nM.

B8: C2 (protein)
chain: B2 chain with H10D, R11I, V18I, M86K, D87K, S88T, N101L, R104K, A105K
Binder B8 has a Kd [1] of 0.025 nM and a Kd [2] of 4000 nM.

B9: C10 (protein)
chain: B2 chain with R11L, V18I, S88T, N101L, R104K, A105K
With B9 the Kd [1] was 5 nM and the Kd [2] was 264 nM.

B10: C4 (protein)
chain: B2 chain with H10V, M86R, S88T, R104K, A105E, K108T
Work on B10 yielded a Kd [1] of 0.393 nM and a Kd [2] of 36000 nM.

B11: C11 (protein)
chain: B2 chain with M86T, D87G, S88R, R89K, N101L, R104K, A105K
B11 was tested, and the Kd [1] was 0.0001 nM and the Kd [2] was 3600 nM.

B12: A8 (protein)
chain: B2 chain with H10I, V18I, M86R, D87S, N101H, A105T, K108R
B12 was tested, and the Kd [1] was 0.263 nM and the Kd [3] was 2.06 nM.

B13: D7 (protein)
chain: B2 chain with H10A, V18F, M86K, D87K, S88T, N101I, A105K
With B13 the Kd [1] was 0.003 nM and the Kd [2] was 4100 nM.

B14: B4 (protein)
chain: B2 chain with H10L, R11S, V18I, M86K, D87G, R89M, N101Y, A105T, K108R
Work on B14 yielded a Kd [3] of 18 nM and a Kd [4] of 108 nM.

B15: A5 (protein)
chain: B2 chain with H10L, R11I, V18I, M86K, D87G, R89K, N101H, F107M, K108R
B15 showed a Kd [3] of 2.94 nM and a Kd [4] of 50 nM.

B16: C7 (protein)
chain: B2 chain with H10L, R11S, I14M, M86R, R89K, R104K
Work on B16 yielded a Kd [1] of 0.272 nM and a Kd [2] of 35000 nM.

B17: B6 (protein)
chain: B2 chain with H10T, V18I, M86R, D87G, R89K, N101Y, A105T, K108R
For B17, the Kd [3] was 5.9 nM and the Kd [4] was 53 nM.

B18: A11 (protein)
chain: B2 chain with H10V, V18I, M86R, D87S, R89K, N101F, A105T, K108R
In the case of B18, the Kd [1] is reported as 0.391 nM and the Kd [3] is reported as 0.084 nM.

B19: MDNA109-Fc (2nd Gen.) (protein)
chain: APTSSSTKKTQLQLEHLLLDLQMILNGINNYKNPKLTRMLTFKFYMPKKATELKHLQCLEEELKPLEEVLNLAQSKNFHFDPRDVVSNINVFVLELKGSETTFMCEYADETATIVEFLNRWITFCQSIISTLTGGGGSGGGGSGGGGSDKTHTCPPCPAPELLGGPSVFLFPPKPKDTLMISRTPEVTCVVVDVSHEDPEVKFNWYVDGVEVHNAKTKPREEYASTYRVVSVLTVLHQDWLNGKEYKCKVSNKALPAPIEKTISKAKGQPREPQVYTLPPSREEMTKNQVSLTCLVKGFYPSDIAVEWESNGQPENNYKTTPPVLDSDGSFFLYSKLTVDKSRWQQGNVFSCSVMHEALHNHYTQKSLSLSPGK
Work on B19 yielded a Kd (IL2R alpha (CD25)) of 14 nM and a Kd (IL2R beta (CD122)) of 2.7 nM.

B20: CD25 (IL-2Rα) (receptor)
chain: T3 chain
B20 gave a Kd (MDNA109 (1st Gen.)) of 26 nM and a Kd (MDNA109-Alb (2nd Gen.)) of 56 nM.
